Patent US10815297B2, “Antagonists of IL17C for the treatment of inflammatory disorders” (MorphoSys AG, priority 2011, dated 2020)

B1: MOR12762: anti-mouse IL17C HuCAL antibody; CDRs SEQ ID NO: 171-176, VL 177, VH 178; human/mouse chimeric IgG2a (antibody, V domains shown)
VH: EVQLVQSGAEVKKPGESLKISCKGSGYSFNNYWIAWVRQMPGKGLEWMGFIYPSNSATQYSPSFQGQVTISADKSISTAYLQWSSLKASDTAMYYCARDNEYSDSYFDVWGQGTLVTVSS
VL: DIVLTQSPATLSLSPGERATLSCRASQIVSSYLAWYQQKPGQAPRLLIYDASSRATGIPARFSGSGSGTDFTLTISSLEPEDFAVYYCQQSEQVPTTFGQGTKVEIKRT
modifications: mouse IgG2a constant regions; VH; VL

Legend:
Type in all cases: in vivo
[1] = tested on: mouse CIA model (DBA1/J mice); test: Mouse collagen induced arthritis (CIA) model, therapeutic protocol; conditions: 10 mg/kg, 3x week, i.p., day 31 to day 46
Description: (§1) DBA1/J mice (male, 6-7 weeks old, approx 20 gram) were obtained from Centre d'Elevage Regional Janvier (Laval, France). Mice were kept on a 12 hr light/dark cycle (0700-1900). Temperature was maintained at 22° C., and food and water were provided ad libitum.
One day before the experiment, CII solution (2 mg/mL) was prepared with 0.05 M acetic acid and stored at 4° C. Just before the immunization, equal volumes of adjuvant […] and CII were mixed by a homogenizer in a pre-cooled glass bottle in an ice water bath. Extra adjuvant and prolonged homogenization may be required if an emulsion is not formed. 0.1 mL of the emulsion was injected intradermally at the base of the tail of each mouse on day 1, a second booster intradermal injection (CII solution at 2 mg/mL in […] 0.1 mLemulsion) was performed on day 21. This immunization method was modified from published methods (Brand et al, 2007, Collagen-induced arthritis. Nature Protocols; vol 2 (5): 1269-1275; Lin et al., 2007, Anti-rheumatic activities of histone deacetylase (HDAC) inhibitors in vivo in collagen-induced arthritis in rodents. Br J Pharmacol. April; 150 (7):829-31).
The therapeutic effects of the antibodies were tested in the mouse CIA model. Mice were randomly divided into equal groups and each group contained 10 mice. All mice were immunized on day 1 and boosted on day 21. Therapeutic dosing lasted from day 31 to day 46. The negative control group was treated with vehicle (PBS) and the positive control group with Enbrel (10 mg/kg, 3× week, i.p.). An antibody of interest was tested at 10 mg/kg, i.p. 3 times per week.
Anti-IL17C antibodies were administered i.p. three times a week at 10 mg/kg. […]
(§2) Arthritis was scored according to the method of Khachigian 2006 (Collagen antibody-induced arthritis. (2006) Nature Protocols 1, 2512-6), Lin et al 2007 (supra); Nishida et al. 2004 (Histone deacetylase inhibitor suppression of autoantibody-mediated arthritis in mice via regulation of p16INK4a and p21(WAF1/Cip1) expression. Arthritis Rheum. 10: 3365-76); and Brand et al. 2007 (supra). […]

[2] = tested on: mouse CIA model (DBA1/J mice); test: Mouse collagen induced arthritis (CIA) model, preventative protocol; conditions: 10 mg/kg, 3x week, i.p., day 21 to day 46
Description: as §1
One day before the experiment, CII solution (2 mg/mL) was prepared with 0.05 M acetic acid and stored at 4° C. Just before the immunization, equal volumes of adjuvant […] and CII were mixed by a homogenizer in a pre-cooled glass bottle in an ice water bath. Extra adjuvant and prolonged homogenization may be required if an emulsion is not formed. 0.1 mL of the emulsion was injected intradermally at the base of the tail of each mouse on day 1, a second booster intradermal injection (CII solution at 2 mg/mL in […] 0.1 mLemulsion) was performed on day 21. […]
as §2

[3] = tested on: BALB/c female mice, LPS-induced acute lung neutrophilia; test: Intranasal instillation of LPS, mouse model of acute lung neutrophilia; conditions: single treatment 5 mg/kg i.p. 24 hours before LPS instillation; BAL 24 hours after LPS
Description: Two independent studies were conducted with one negative mAb and two positive mAbs in the intranasal instillation of Lipopolysaccharide (LPS) mouse model of acute lung neutrophilia, a model which mimics some relevant aspects of COPD (Chronic Obstructive Pulmonary Disease). The effects were measured by Broncho Alveolar Lavage (BAL) inflammatory cell counting.
Several groups of mice were treated with different antibodies and Dexamethasone and compared to the mice subjected to LPS only.
BALB/c female mice from Harlan (France) were used in the study. Mice weight was around 20 g.
Mice were anesthetized by isoflurane inhalation. During the breathing, LPS was instilled intranasally. After 24 h, mice were anesthetized intra-peritoneally (IP) and Broncho Alveolar Lavage procedure was performed. Mice were anesthetized by injection of anaesthetic solution of 0.1 mL per 10 g of the mouse weight. The anaesthetic solution was composed of 18 ml 0.9% NaCl, 0.5 mL xylazine (5 mg/Kg) and 1.5 mL ketamine (75 mg/Kg).
The trachea was exposed through midline incision and canulated (with a mice catheter). BAL was performed twice using 1 mL of sterile PBS buffer. […] The cells were counted using a cell counter (Vet abc, France). […]
For all groups, BAL was performed 24 hours after LPS administration and cell counts were measured.
The results were analyzed using Student t-test. […]

Molecule | inhibition of inflammation / disease progression (clinical score) [1] | inhibition of bone degradation / bone erosion (Larsen score) [2] | inhibition of inflammation (clinical score) [2] | inhibition of the recruitment of inflammatory cells into the BALF [3]
etanercept [Enbrel, reference compound] | did inhibit |  |  | 
B1 | significant inhibition | significant inhibition | significant inhibition | inhibited significantly
